Experimental findings from publication PMC6252157 (Molecular neurobiology, 2018) are described below.

In the test the target is T1, adenosine A1 receptor fused to Renilla luciferase (A1R-Rluc) (UniProt P30542 1-326).
T1 sequence (looked up): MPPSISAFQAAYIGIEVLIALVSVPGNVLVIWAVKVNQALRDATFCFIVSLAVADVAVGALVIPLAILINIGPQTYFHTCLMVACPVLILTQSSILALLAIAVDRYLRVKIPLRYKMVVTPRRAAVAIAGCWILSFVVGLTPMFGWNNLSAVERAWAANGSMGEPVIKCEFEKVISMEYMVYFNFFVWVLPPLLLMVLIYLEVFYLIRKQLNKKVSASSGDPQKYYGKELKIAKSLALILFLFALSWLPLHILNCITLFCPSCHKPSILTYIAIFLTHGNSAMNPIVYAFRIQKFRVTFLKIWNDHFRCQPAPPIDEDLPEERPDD
The test can be described thus: FRET or BRET.

B1: dopamine D1 receptor fused to YFP (D1R-YFP) (receptor, UniProt P21728 1-446, looked up)
chain: MRTLNTSAMDGTGLVVERDFSVRILTACFLSLLILSTLLGNTLVCAAVIRFRHLRSKVTNFFVISLAVSDLLVAVLVMPWKAVAEIAGFWPFGSFCNIWVAFDIMCSTASILNLCVISVDRYWAISSPFRYERKMTPKAAFILISVAWTLSVLISFIPVQLSWHKAKPTSPSDGNATSLAETIDNCDSSLSRTYAISSSVISFYIPVAIMIVTYTRIYRIAQKQIRRIAALERAAVHAKNCQTTTGNGKPVECSQPESSFKMSFKRETKVLKTLSVIMGVFVCCWLPFFILNCILPFCGSGETQPFCIDSNTFDVFVWFGWANSSLNPIIYAFNADFRKAFSTLLGCYRLCPATNNAIETVSINNNGAAMFSSHHEPRGSISKECNLVYLIPHAVGSSEDLKKEEAAGIARPLEKLSPALSVILDYDTDVSLEKIQPITQNGQHPT
Consider B1, for which the BRET50 was found to be 2 ± 1 YFP/Rluc ratio.
